Measurements: US8603949B2, “Libraries of optimized cytochrome P450 enzymes and the optimized P450 enzymes” (California Institute of Technology, priority 2003, dated 2013)
Entries after “also recorded” stand apart in the source; their conditions may differ.

B1: Chimera 169-197: CYP102A1 heme domain with residues 169-197 from CYP102A2 (protein)
chain: TIKEMPQPKTFGELKNLPLLNTDKPVQALMKIADELGEIFKFEAPGRVTRYLSSQRLIKEACDESRFDKNLSQALKFVRDFAGDGLATSWTHEKNWKKAHNILLPSFSQQAMKGYHAMMVDIAVQLVQKWERLNADEHIEVPEDMTRLTLDTIGLCGFNYRFNSFYRDTPHPFINSMVRALDEAMHQMQRLDVQDKLYDENKRQFQEDIKVMNDLVDKIIADRKASGEQSDDLLTHMLNGKDPETGEPLDDENIRYQIITFLIAGHETTSGLLSFALYFLVKNPHVLQKAAEEAARVLVDPVPSYKQVKQLKYVGMVLNEALRLWPTAPAFSLYAKEDTVLGGEYPLEKGDELMVLIPQLHRDKTIWGDDVEEFRPERFENPSAIPQHAFKPFGNGQRACIGQQFALHEATLVLGMMLKHFDFEDHTNYELDIKETLTLKPEGFVVKAKSKKIPLGGIPSPST
modifications: Chimeric Cytochrome P450 heme group sequence from Bacillus megaterium and Bacillus subtilis
notes: CYP102A1 heme domain with residues 169-197 from CYP102A2
B2: Chimera 165-256: CYP102A1 heme domain with residues 165-256 from CYP102A2 (protein)
chain: TIKEMPQPKTFGELKNLPLLNTDKPVQALMKIADELGEIFKFEAPGRVTRYLSSQRLIKEACDESRFDKNLSQALKFVRDFAGDGLATSWTHEKNWKKAHNILLPSFSQQAMKGYHAMMVDIAVQLVQKWERLNADEHIEVPEDMTRLTLDTIGLCGFNYRFNSYYRETPHPFINSMVRALDEAMHQMQRLDVQDKLMVRTKRQFRYDIQTMFSLVDSIIAERRANGDQDEKDLLARMLNVEDPETGEKLDDENIRFQIITFLIAGHETTSGLLSFALYFLVKNPHVLQKAAEEAARVLVDPVPSYKQVKQLKYVGMVLNEALRLWPTAPAFSLYAKEDTVLGGEYPLEKGDELMVLIPQLHRDKTIWGDDVEEFRPERFENPSAIPQHAFKPFGNGQRACIGQQFALHEATLVLGMMLKHFDFEDHTNYELDIKETLTLKPEGFVVKAKSKKIPLGGIPSPST
modifications: Chimeric Cytochrome P450 heme group sequence from Bacillus megaterium and Bacillus subtilis
notes: CYP102A1 heme domain with residues 165-256 from CYP102A2
B3: CYP102A1: parent P450 heme domain from Bacillus megaterium, with the F87A mutation (protein, listed as Bacillus megaterium)
chain: TIKEMPQPKTFGELKNLPLLNTDKPVQALMKIADELGEIFKFEAPGRVTRYLSSQRLIKEACDESRFDKNLSQALKFVRDFAGDGLATSWTHEKNWKKAHNILLPSFSQQAMKGYHAMMVDIAVQLVQKWERLNADEHIEVPEDMTRLTLDTIGLCGFNYRFNSFYRDQPHPFITSMVRALDEAMNKLQRANPDDPAYDENKRQFQEDIKVMNDLVDKIIADRKASGEQSDDLLTHMLNGKDPETGEPLDDENIRYQIITFLIAGHETTSGLLSFALYFLVKNPHVLQKAAEEAARVLVDPVPSYKQVKQLKYVGMVLNEALRLWPTAPAFSLYAKEDTVLGGEYPLEKGDELMVLIPQLHRDKTIWGDDVEEFRPERFENPSAIPQHAFKPFGNGQRACIGQQFALHEATLVLGMMLKHFDFEDHTNYELDIKETLTLKPEGFVVKAKSKKIPLGGIPSPST
B4: Chimera 191-335: CYP102A1 heme domain with residues 191-335 from CYP102A2 (protein)
chain: TIKEMPQPKTFGELKNLPLLNTDKPVQALMKIADELGEIFKFEAPGRVTRYLSSQRLIKEACDESRFDKNLSQALKFVRDFAGDGLATSWTHEKNWKKAHNILLPSFSQQAMKGYHAMMVDIAVQLVQKWERLNADEHIEVPEDMTRLTLDTIGLCGFNYRFNSFYRDQPHPFITSMVRALDEAMNKLQRLDVQDKLMVRTKRQFRYDIQTMFSLVDSIIAERRANGDQDEKDLLARMLNVEDPETGEKLDDENIRFQIITFLIAGHETTSGLLSFATYFLLKHPDKLKKAYEEVDRVLTDAAPTYKQVLELTYIRMILNESLRLWPTAPAFSLYPKEDTVLGGEYPLEKGDELMVLIPQLHRDKTIWGDDVEEFRPERFENPSAIPQHAFKPFGNGQRACIGQQFALHEATLVLGMMLKHFDFEDHTNYELDIKETLTLKPEGFVVKAKSKKIPLGGIPSPST
modifications: Chimeric Cytochrome P450 heme group sequence from Bacillus megaterium and Bacillus subtilis
notes: CYP102A1 heme domain with residues 191-335 from CYP102A2
B5: Chimera 43-135: CYP102A1 heme domain with residues 43-135 from CYP102A2 (protein)
chain: TIKEMPQPKTFGELKNLPLLNTDKPVQALMKIADELGEIFKFHTPAGTTIVVSGHELVKEVCDEERFDKSIEGALEKVRAFSGDGLATSWTHEPNWRKAHNILMPTFSQRAMKDYHEKMVDIAVQLIQKWARLNPDEHIEVPEDMTRLTLDTIGLCGFNYRFNSFYRDQPHPFITSMVRALDEAMNKLQRANPDDPAYDENKRQFQEDIKVMNDLVDKIIADRKASGEQSDDLLTHMLNGKDPETGEPLDDENIRYQIITFLIAGHETTSGLLSFALYFLVKNPHVLQKAAEEAARVLVDPVPSYKQVKQLKYVGMVLNEALRLWPTAPAFSLYAKEDTVLGGEYPLEKGDELMVLIPQLHRDKTIWGDDVEEFRPERFENPSAIPQHAFKPFGNGQRACIGQQFALHEATLVLGMMLKHFDFEDHTNYELDIKETLTLKPEGFVVKAKSKKIPLGGIPSPST
modifications: Chimeric Cytochrome P450 heme group sequence from Bacillus megaterium and Bacillus subtilis
notes: CYP102A1 heme domain with residues 43-135 from CYP102A2

Tests used:
[1] = Thermostability (loss of Soret band at increasing temperatures); type: physicochemical; conditions: cell extracts heated 10 minutes
Protocol: Thermostability was assayed by monitoring the loss of the Soret band at increasing temperatures. […] However, thermostability may be important for retention of catalytic activity: the two chimeras that lacked peroxygenase activity were also the least thermostable.
Cell extracts were heated in a thermocycler for 10 minutes at various temperatures, followed by cooling to 4° C. Extracts were centrifuged for 5 minutes at 3500×g to remove any precipitates. Carbon monoxide reduced difference spectroscopy was used to quantitate the amount of P450. The reduction of the carbon monoxide peak was monitored over a range of temperatures.

[2] = Peroxidase activity with ABTS and H2O2; type: biochemical; conditions: for Peroxidase activity: 10 mM ABTS, 20 mM H2O2, pH 5.0, activities <0.2 not detectable (N.D.)
Source text: P450s can reduce peroxide to water (and a proton) using a mechanism similar to that of peroxidases, although the intrinsic rate for P450s is many orders of magnitude slower. (Mansuy, D., Comp Biochem Physiol C Pharmacol Toxicol Endocrinol 121, 5-14 (1998)). It has been proposed that the earliest P450 function may have been as a peroxidase. (Gotoh, O., Cytochrome P450, 2nd Edition, pp. 255-272 (1993)). To investigate how recombination affects P450 peroxidase activity, the colorimetric substrate 2,2′-azino-bis(3-ethylbenzothiazoline-6-sulfonate) (ABTS) was used to monitor this reaction (Childs et al., Biochem J 145,93-103 (1975)).
This example provides an example of how one can measure peroxidase activity. Initial rates of peroxidase activity were measured by monitoring the accumulation of the radical cation of ABTS at 414 nm (Childs et al., Biochem J., 145:93-103 (1975)). Enzyme (1 μM) was mixed with 10 mM ABTS in 200 mM phosphate buffer (pH 5.0) in a cuvette at room temperature. Samples were zeroed and reactions were initiated with the addition of H2O2 to a concentration of 20 mM. The absorbance at 414 nm was monitored for 5 minutes. Rates were determined from the steepest portion of the time course. An extinction coefficient of […] for ABTS was used.

[3] = Peroxygenase activity, hydroxylation of 12-pNCA; type: biochemical; conditions: 250 μM 12-pNCA
Protocol: (§1) The chimeras were assayed for hydroxylation of p-nitrophenoxydodecanoic acid (12-pNCA), a fatty acid analog that is hydroxylated by CYP102A1 and CYP102A2 to yield p-nitrophenolate (Schwaneberg et al., Anal Biochem 269,359-366 (1999)). […] When hydroxylation rates for the parent CYP102 enzymes were monitored using the maximum soluble concentrations of these substrates, activity could only be detected on 2-phenoxy-ethanol.
(§2) This Example provides one method by which peroxygenase activity of a P450 enzyme may be characterized. First order rates for p-nitrophenolate accumulation were determined using 1 μM enzyme, 20 mM H2O2, 250 μM 12-pNCA and 0.5% dimethyl sulfoxide (DMSO) in 100 mM Tris-HCl (pH 8.2) at room temperature. Enzyme, substrate, buffer and DMSO were combined in a cuvette and zeroed at 410 nm. Reaction mixtures were incubated for 4 minutes and initiated by the addition of H2O2 to a final concentration of 20 mM. Initial rates were determined by monitoring the accumulation of p-nitrophenolate at 410 nm, and data from the first six seconds were used to determine initial rates. […] The extinction coefficient of p-nitrophenolate is 13,200 M^−1cm^−1 (Schwaneberg et al., Anal Biochem 269:359-366 (1999)).

[4] = Peroxygenase substrate activity profile; type: biochemical; conditions: 20 mM H2O2
Protocol: as §1
Chimeras were assayed for peroxygenase activity on 12-pNCA, 2-phenoxy -ethanol and allyloxy-benzene. […] Rates are reported in nmol product/nmol P450/minute. […] Those with no activity include 65-256 and 277-365. Those with new activity include 165-256, 191-335, and 43-135.
as §2
(§3) Rates on 2-phenoxy-ethanol and allyloxy-benzene were determined using 2 μM enzyme, 20 mM H2O2, 1% DMSO, and 1% acetone in 100 mM N-[2-hydroxyethyl]piperazine-N′-[3-propanesulfonic acid] (Epps) (pH 8.2) at room temperature. Substrate concentrations for 2-phenoxy-ethanol (100 mM) and allyloxy benzene (50 mM) maintained saturation. Reactions were initiated by the addition of H2O2 and quenched at appropriate times using an equal volume of a solution containing 4M urea and 100 mM NaOH. 120 μl of 0.6% 4-AAP was added, followed by mixing and addition of 120 μl of 0.6% potassium persulfate. Color was allowed to develop for 20 minutes before absorbance was read at 500 nm. Rates were determined from the linear region of the time course. The major products were determined by GC/MS to be the hemiacetal, which decomposes to phenol. The extinction coefficient for the 4-AAP/phenol complex was determined to be 4,800 M^−1cm^−1. The results can be seen in FIG. 4.

[5] = Peroxygenase activity on allyloxy-benzene (4-AAP assay); type: biochemical; conditions: 50 mM substrate
Protocol: as §1, §3

[6] = Li et al. 2001; read-out: KM for 12-pNCA; cited from earlier work
[7] = Peroxygenase activity on 2-phenoxy-ethanol (4-AAP assay); type: biochemical; conditions: 100 mM substrate
Protocol: as §1, §3

| Molecule | Tm [1] [°C] | Peroxidase activity [2] | fold increase of peroxidase activity over the most active parent ([2]; ABTS) | peroxidase activity relative to parents ([2]; ABTS) | peroxygenase activity on 12-pNCA [3] | substrate activity profile relative to parents [4] | peroxygenase activity on allyloxy-benzene [5] | Km [6] [µM] | peroxygenase activity on 2-phenoxy-ethanol [7] |
| --- | --- | --- | --- | --- | --- | --- | --- | --- | --- |
| B1 | 52 | 100.3 nmol product/nmol P450/min | approximately 40 fold | highest peroxidase and peroxygenase rates; also recorded: significantly higher peroxidase activities | most active; also recorded: significant increase | parent-like profiles |  |  |  |
| B2 | 48 | 16.1 nmol product/nmol P450/min |  | significantly higher peroxidase activities |  | broadest substrate specificity; also recorded: new activity; also recorded: active on all three substrates; also recorded: gained novel activity | highest rates |  |  |
| B3 | 55 | 2.6 nmol product/nmol P450/min |  | low, but detectable peroxidase activity |  |  |  | 8.1 |  |
| B4 | 40 |  |  | no detectable peroxidase activity | not | new activity; also recorded: gained novel activity | detectable activity |  | detectable activity |
| B5 | 53 | 6.8 nmol product/nmol P450/min |  |  | not | new activity; also recorded: gained novel activity | highest rates; also recorded: detectable activity |  | detectable activity |
